Measured values from patent US20250340636A1, “ANTIBODIES TARGETING L1CAM AND USES THEREOF” (MEMORIAL SLOAN-KETTERING CANCER CENTER, priority 2023, published 2025).
Where a chain is given by its changes, count along the chain named.

B1: Fab 3: humanized 76H12 Fab variant, preferred; design in Table 86 (antibody, V domains shown)
VH: QVQLVQSGAEVKKPGASVKVSCKASGYTFTSYWMHWVRQAPGQGLEWIGNVYPGSGSTKYAQKFQGRATLTVDTSTSTVYMELSSLRSEDTAVYYCARPGNYEGFAYWGQGTLVTVSS
VL: DIQLTQSPSSLSASVGDRVTITCRASESVDSYGSSFMHWYQQKPGKPPKLLIYLASNLESGVPSRFSGSGSGTDFTLTISSLQPEDFATYYCQQNNEDPWTFGQGTKLEIK
B2: Fab 5: humanized 76H12 Fab variant; design in Table 86 (antibody, V domains shown)
VH: B1 VH
VL: B1 VL with D1N
B3: Fab 4: humanized 76H12 Fab variant; design in Table 86 (antibody, V domains shown)
VH: B1 VH
VL: B1 VL with G72R
B4: 14A10: anti-L1CAM mAb from AlivaMab mice (human variable regions, mouse IgG1 Fc); VH SEQ ID NO: 87, VL SEQ ID NO: 88 (antibody, V domains shown)
VH: EVQMVESGGGLVQPGGSLRLSCAAPGFIFSSYNMNWVRQAPGKGLEWVSYISSSSSTTYYADSVKGRFTISRDNAKNSLYLQMNSLRDEDTAVYYCASLYSGYDYYYYYGMDVWGQGTTVTVSS
VL: DIVMTQTPLSSPVSLGQPASISCRSSQSLVHSDGNTYLSWLQQRPGQPPRVLIYKISKRFSGVPDRFSGSGAGTDFTLKISRVEAEDVGVYYCMQATQFPFTFGPGTKVDIK

Tests used:
[1] = target: T1, recombinant L1CAM-Fc fusion protein (Homo sapiens, UniProt P32004); assay: BLI binding of 76H12 Fabs to recombinant L1CAM-Fc; details: L1CAM-Fc on AHC biosensors, Fab 3-200 nM, 1:1 model
T1 construct: purchased R&D Systems; host or cells: mammalian cells
T1 sequence (P32004 20-1120): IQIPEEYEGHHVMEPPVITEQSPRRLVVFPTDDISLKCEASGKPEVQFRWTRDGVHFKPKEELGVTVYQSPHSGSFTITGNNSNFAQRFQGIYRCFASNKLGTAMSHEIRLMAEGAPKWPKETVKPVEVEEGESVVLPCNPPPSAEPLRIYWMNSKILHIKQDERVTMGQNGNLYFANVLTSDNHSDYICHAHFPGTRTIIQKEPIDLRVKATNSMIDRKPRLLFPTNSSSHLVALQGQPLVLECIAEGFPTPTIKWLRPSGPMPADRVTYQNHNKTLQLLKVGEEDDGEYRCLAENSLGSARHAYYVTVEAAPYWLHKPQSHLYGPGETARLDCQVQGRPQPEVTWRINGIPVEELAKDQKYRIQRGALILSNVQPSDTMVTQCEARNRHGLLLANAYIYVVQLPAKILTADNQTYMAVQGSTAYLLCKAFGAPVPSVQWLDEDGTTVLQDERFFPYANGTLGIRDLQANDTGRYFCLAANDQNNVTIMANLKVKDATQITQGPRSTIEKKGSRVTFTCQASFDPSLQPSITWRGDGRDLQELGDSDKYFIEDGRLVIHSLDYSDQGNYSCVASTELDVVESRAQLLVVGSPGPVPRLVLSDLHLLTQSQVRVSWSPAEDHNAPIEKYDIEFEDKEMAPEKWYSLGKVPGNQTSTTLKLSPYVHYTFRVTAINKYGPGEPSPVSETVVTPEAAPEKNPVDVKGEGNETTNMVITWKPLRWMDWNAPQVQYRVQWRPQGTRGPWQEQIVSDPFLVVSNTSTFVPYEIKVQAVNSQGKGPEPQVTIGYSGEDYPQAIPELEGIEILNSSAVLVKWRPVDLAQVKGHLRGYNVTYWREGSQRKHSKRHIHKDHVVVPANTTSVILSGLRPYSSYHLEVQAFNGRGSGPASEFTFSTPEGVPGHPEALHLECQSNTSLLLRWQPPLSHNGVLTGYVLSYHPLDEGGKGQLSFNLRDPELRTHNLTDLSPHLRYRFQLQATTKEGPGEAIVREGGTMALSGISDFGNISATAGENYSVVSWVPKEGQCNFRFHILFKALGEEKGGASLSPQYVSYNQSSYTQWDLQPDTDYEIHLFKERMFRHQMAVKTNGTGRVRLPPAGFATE
Description: A total of 11 humanized 76H12 Fab variants (Fabs 2-12) were generated in addition to a chimeric 76H12 Fab (Fab 1) containing the parental murine VH and VL sequences. The chimeric Fab served as the benchmark for comparative assessment of humanized Fab variants. Humanized Fabs were first assessed by flow cytometry for binding to 293T cells engineered to overexpress L1CAM (FIG. 32A). All humanized variants bound to the L1CAM overexpressing cells, with most binding comparably to the chimeric 76H12 Fab. […] Here, recombinant L1CAM-Fc fusion protein was immobilized onto anti-Human IgG Fc Capture (AHC) biosensors and binding of Fabs was measured kinetically over a 3-200 nM concentration range. Kinetic data were fitted to a 1:1 binding model to compute association (kon) and dissociation (koff) rate constants, in addition to equilibrium dissociation constants (KD) as shown in Table 87. […] From these, Fab 3 represents the preferred humanized variant given higher identity to human germline IGHV1-46 and IGKV1-39 sequences resulting from fewer human-to-murine framework back mutations.

[2] = target: T2, HEK293FT cells transiently transfected with mouse L1CAM (Mus musculus, UniProt P11627); assay: Flow cytometry binding to HEK293FT cells transiently transfected with mouse L1CAM
T2 construct: expressed in transfected cells; host or cells: HEK293FT (transient)
T2 sequence (P11627 20-1260): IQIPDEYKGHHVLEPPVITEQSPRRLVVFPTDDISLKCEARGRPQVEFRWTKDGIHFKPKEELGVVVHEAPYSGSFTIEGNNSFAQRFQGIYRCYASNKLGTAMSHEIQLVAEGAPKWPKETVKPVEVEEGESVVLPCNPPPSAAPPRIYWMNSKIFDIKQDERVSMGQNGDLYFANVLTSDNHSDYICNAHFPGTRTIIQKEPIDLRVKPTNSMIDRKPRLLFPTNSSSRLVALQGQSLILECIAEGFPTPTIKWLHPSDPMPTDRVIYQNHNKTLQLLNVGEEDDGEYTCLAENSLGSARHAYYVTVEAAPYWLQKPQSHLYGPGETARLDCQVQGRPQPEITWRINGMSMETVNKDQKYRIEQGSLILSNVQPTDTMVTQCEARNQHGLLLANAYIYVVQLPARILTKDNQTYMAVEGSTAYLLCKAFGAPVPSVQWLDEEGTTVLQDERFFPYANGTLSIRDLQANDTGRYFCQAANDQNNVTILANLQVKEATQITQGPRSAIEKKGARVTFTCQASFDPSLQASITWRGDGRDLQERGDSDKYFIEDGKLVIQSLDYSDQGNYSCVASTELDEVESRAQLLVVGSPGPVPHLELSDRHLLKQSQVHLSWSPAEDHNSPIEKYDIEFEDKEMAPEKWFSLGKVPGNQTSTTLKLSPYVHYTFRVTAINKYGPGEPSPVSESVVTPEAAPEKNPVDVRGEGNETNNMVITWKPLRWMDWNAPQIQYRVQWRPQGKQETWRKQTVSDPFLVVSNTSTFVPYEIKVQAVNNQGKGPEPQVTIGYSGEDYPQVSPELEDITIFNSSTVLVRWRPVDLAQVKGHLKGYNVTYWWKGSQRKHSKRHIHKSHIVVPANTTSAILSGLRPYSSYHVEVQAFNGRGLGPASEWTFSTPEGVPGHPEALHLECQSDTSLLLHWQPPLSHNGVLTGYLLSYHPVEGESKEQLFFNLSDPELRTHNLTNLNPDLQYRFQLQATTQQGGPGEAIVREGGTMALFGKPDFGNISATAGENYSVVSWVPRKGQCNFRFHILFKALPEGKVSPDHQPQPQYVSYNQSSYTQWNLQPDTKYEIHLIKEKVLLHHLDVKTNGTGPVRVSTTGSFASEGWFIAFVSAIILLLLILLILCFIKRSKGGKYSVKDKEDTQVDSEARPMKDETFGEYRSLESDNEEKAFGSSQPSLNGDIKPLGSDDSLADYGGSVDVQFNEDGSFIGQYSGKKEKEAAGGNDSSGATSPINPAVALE
Procedure: Hybridoma Screening. Binding to human L1CAM protein was tested by ELISA and to a HEK293T cell line overexpressing human L1CAM by flow cytometry. […] Cross-reactivity to cynomolgus L1CAM was not assessed at this point, as it is >99% homologous to human L1CAM. […] The antibodies were tested for binding to MDA-MB-231 cells, a breast cancer cell line that endogenously expresses L1CAM, followed by analysis of their internalization efficacy in MDA-MB-231 cells.
Binding Analysis. […] Dissociation constants (KD) for binding to soluble human and cynomolgus monkey L1CAM-His were determined using biolayer interferometry (BLI). In addition, EC50 values for binding to cell-bound L1CAM were established by flow cytometry using HEK293T/FT cells overexpressing human or mouse L1CAM, MCF-7 cells, and MDA-MB-231 cells. In addition, the epitope regions of the mAbs were determined by BLI interaction analysis with L1CAM subdomains (Ig and FN) expressed individually, and by a BLI competition experiment to identify epitope bins.
The binding curves for each antibody and cell line normalized to secondary antibody only staining (MFI ratio) are shown in FIGS. 14A-14C. EC50 values were determined by non-linear regression (Table 70). […] It is possible that differences in the conformation and oligomerization of L1CAM, depending on the surface expression level, contributed to the binding pattern. […]

Molecule | affinity for L1CAM relative to the chimeric Fab (Fab 1) [1] | cross-reactivity with mouse L1CAM [2]
B1 | equivalent or better affinity than the chimeric Fab | 
B2 | equivalent or better affinity than the chimeric Fab | 
B3 | equivalent or better affinity than the chimeric Fab | 
B4 |  | cross-reacted with mouse L1CAM
